The test deals with 420-kD polypeptide (human alpha 2-macroglobulin receptor) (human (endogenous in placenta)) (UniProt Q07954). Briefly: ELISA.
UniProt Q07954, sequence (Q07954 20-4544): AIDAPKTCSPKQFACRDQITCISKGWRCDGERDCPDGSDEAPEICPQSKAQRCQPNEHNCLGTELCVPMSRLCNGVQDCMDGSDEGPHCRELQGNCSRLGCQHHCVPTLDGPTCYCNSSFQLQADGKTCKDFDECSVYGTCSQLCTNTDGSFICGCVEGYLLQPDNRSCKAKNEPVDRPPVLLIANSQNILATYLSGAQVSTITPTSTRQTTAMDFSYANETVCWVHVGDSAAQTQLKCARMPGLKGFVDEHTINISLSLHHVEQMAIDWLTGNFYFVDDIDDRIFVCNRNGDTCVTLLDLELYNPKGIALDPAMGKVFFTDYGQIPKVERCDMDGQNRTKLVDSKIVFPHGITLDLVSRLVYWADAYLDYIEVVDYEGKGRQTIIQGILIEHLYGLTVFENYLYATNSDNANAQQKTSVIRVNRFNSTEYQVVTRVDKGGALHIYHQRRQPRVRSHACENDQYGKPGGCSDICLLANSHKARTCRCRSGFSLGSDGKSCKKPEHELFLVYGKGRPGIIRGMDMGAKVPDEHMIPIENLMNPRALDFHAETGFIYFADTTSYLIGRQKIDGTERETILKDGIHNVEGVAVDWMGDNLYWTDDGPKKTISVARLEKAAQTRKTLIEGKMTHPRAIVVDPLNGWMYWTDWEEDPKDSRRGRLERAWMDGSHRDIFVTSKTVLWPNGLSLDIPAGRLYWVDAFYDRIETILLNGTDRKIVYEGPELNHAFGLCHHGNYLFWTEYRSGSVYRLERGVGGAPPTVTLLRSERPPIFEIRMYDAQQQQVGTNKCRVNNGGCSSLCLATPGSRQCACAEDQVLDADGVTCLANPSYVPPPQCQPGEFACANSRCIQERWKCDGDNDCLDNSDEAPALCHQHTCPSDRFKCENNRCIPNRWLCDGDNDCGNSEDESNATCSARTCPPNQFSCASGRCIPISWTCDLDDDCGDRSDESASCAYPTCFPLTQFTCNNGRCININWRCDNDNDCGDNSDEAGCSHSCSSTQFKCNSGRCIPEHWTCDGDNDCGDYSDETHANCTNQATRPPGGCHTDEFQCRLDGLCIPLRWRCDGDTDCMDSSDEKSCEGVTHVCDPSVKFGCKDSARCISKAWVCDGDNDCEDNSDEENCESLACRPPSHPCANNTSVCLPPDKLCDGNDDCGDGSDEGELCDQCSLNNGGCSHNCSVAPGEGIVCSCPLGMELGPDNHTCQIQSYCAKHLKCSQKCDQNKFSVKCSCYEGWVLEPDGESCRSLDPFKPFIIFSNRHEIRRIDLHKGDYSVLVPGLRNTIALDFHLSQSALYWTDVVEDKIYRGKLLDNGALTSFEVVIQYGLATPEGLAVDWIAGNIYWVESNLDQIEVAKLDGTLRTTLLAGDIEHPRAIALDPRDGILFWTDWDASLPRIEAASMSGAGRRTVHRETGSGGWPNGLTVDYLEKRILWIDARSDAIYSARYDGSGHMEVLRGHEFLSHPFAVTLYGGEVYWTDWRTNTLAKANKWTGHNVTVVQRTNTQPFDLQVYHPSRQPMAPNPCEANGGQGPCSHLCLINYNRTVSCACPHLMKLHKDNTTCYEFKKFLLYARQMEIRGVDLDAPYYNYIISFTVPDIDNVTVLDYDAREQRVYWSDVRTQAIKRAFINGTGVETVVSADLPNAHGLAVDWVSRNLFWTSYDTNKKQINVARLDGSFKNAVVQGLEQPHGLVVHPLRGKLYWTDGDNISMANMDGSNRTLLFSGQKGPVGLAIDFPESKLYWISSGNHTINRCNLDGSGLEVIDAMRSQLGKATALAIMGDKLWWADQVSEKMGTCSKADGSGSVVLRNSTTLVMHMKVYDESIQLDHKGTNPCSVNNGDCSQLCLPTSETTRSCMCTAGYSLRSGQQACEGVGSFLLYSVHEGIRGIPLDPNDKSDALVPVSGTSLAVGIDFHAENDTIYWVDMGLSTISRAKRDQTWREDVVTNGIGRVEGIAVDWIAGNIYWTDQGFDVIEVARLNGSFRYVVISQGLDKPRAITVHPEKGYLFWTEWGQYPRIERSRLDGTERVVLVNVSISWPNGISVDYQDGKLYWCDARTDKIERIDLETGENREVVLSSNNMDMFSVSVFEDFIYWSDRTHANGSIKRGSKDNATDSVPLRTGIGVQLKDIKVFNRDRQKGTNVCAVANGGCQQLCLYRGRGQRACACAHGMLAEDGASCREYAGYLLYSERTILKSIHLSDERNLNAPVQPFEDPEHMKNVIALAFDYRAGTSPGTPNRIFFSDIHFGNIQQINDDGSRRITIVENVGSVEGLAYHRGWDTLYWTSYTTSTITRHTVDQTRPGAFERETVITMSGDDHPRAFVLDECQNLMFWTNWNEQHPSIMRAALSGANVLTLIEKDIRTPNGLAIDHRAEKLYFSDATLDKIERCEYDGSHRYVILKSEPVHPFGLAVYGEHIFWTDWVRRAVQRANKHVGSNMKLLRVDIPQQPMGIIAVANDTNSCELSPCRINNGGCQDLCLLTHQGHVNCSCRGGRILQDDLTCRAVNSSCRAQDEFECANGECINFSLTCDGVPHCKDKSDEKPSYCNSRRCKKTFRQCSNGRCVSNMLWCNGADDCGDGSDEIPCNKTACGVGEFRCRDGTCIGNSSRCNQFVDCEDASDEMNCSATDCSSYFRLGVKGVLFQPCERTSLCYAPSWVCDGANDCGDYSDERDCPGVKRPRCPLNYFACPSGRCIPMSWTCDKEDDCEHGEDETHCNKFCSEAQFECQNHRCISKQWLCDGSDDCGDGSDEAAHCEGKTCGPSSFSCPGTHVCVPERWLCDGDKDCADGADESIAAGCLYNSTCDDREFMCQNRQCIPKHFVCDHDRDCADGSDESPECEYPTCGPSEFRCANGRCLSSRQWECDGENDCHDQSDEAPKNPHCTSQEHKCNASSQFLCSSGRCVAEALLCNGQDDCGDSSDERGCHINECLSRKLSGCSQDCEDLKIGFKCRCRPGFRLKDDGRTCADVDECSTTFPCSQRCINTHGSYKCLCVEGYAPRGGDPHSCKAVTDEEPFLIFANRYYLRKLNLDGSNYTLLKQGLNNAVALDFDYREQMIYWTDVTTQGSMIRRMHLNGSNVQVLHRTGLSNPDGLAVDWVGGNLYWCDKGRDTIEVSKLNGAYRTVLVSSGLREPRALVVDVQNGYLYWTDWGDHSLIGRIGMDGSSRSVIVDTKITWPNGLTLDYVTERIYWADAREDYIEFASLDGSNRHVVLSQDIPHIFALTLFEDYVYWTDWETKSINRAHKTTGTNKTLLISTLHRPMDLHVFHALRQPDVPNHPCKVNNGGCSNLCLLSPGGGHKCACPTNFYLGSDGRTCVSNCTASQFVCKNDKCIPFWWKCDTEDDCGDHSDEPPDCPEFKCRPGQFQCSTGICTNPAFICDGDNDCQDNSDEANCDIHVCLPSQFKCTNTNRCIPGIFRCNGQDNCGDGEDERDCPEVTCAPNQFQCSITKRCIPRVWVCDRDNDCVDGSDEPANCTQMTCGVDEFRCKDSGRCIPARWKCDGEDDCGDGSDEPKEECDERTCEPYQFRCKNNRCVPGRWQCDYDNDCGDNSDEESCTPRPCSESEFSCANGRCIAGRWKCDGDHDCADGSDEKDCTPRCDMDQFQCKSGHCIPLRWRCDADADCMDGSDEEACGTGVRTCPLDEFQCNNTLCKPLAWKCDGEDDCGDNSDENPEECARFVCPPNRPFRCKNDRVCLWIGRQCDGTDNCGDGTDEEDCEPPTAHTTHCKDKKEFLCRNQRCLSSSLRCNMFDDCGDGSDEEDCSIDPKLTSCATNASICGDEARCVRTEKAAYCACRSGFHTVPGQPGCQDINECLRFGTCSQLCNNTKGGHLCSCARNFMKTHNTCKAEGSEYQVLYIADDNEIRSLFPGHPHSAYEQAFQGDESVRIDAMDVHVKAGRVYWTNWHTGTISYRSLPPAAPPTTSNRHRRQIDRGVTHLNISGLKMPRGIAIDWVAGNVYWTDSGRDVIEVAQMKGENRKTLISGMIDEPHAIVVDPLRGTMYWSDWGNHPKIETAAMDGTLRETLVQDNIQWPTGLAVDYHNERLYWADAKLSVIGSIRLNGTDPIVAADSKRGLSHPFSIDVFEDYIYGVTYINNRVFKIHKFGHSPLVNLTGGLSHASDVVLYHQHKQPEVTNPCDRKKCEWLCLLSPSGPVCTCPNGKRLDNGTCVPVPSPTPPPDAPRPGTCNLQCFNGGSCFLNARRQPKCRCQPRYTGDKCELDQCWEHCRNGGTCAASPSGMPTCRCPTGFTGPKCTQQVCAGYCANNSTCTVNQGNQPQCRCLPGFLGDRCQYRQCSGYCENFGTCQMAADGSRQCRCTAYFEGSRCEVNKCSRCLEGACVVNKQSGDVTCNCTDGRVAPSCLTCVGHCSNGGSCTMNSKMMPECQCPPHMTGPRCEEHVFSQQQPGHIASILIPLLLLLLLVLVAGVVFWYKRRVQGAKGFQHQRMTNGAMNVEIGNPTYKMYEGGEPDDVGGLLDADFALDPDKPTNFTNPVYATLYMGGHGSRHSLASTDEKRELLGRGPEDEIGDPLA

What is called Kd is a measure of binding affinity in units of concentration. Read a low Kd as a tighter complex. In turn, “alpha 2-macroglobulin-trypsin complex (from UniProt P01023 24-1474)” showed a dissociation constant Kd of 70 nM.

Values taken from PMC2116111.
